According to patent publication US20150023971A1:

Tests used:
[1] = target: T1, …; assay: SPOT length analysis, dot 6, HRP-S-protein detection
T1 sequence (peptide): FRSSDFAKNFVQTD

[2] = target: T2, …; assay: SPOT length analysis, dot 9, HRP-S-protein detection
T2 sequence (peptide): FRSSDFAKNFVQT

[3] = target: T3, …; assay: SPOT length analysis, dot 10, HRP-S-protein detection
T3 sequence (peptide): RSSDFAKNFVQTD

[4] = target: T4, …; assay: SPOT length analysis, dot 12, HRP-S-protein detection
T4 sequence (peptide): IFRSSDFAKNFV

[5] = target: T5, …; assay: SPOT length analysis, dot 14, HRP-S-protein detection
T5 sequence (peptide): RSSDFAKNFVQT

[6] = target: T6, …; assay: SPOT length analysis, dot 22, HRP-S-protein detection
T6 sequence (peptide): RIFRSSDFAK

[7] = target: T7, …; assay: SPOT length analysis, dot 23, HRP-S-protein detection
T7 sequence (peptide): IFRSSDFAKN

[8] = target: T8, …; assay: SPOT length analysis, dot 27, HRP-S-protein detection
T8 sequence (peptide): SDFAKNFVQT

[9] = target: T9, sortilin peptide … on SPOT membrane; assay: SPOT length analysis, dot 36, HRP-S-protein detection
T9 sequence (peptide, C-terminus anchored to the cellulose membrane through a beta-alanine linker): FAKNFVQTD

[10] = target: T10, sortilin peptide RIFRSSDF on SPOT membrane; assay: SPOT length analysis, dot 37, HRP-S-protein detection
T10 sequence (peptide, C-terminus anchored to the cellulose membrane through a beta-alanine linker): RIFRSSDF

FRSSDFA [11] = target: T11, FRSSDFA; assay: SPOT length analysis, dot 48, HRP-S-protein detection
T11 sequence (peptide): FRSSDFA

SSDFAKN = target: T12, SSDFAKN; assay: SPOT length analysis, dot 50, HRP-S-protein detection
T12 sequence (peptide): SSDFAKN

AKNFVQT [12] = target: T13, AKNFVQT; assay: SPOT length analysis, dot 54, HRP-S-protein detection
T13 sequence (peptide): AKNFVQT

SDFAKN = target: T14, SDFAKN; assay: SPOT length analysis, dot 61, HRP-S-protein detection
T14 sequence (peptide): SDFAKN

NFVQTD = target: T15, NFVQTD; assay: SPOT length analysis, dot 66, HRP-S-protein detection
T15 sequence (peptide): NFVQTD

RIFRS = target: T16, RIFRS; assay: SPOT length analysis, dot 67, HRP-S-protein detection
T16 sequence (peptide): RIFRS

IFRSS [13] = target: T17, IFRSS; assay: SPOT length analysis, dot 68, HRP-S-protein detection
T17 sequence (peptide): IFRSS

FRSSD = target: T18, FRSSD; assay: SPOT length analysis, dot 69, HRP-S-protein detection
T18 sequence (peptide): FRSSD

RSSDF [14] = target: T19, RSSDF; assay: SPOT length analysis, dot 70, HRP-S-protein detection
T19 sequence (peptide): RSSDF

SDFAK = target: T20, SDFAK; assay: SPOT length analysis, dot 72, HRP-S-protein detection
T20 sequence (peptide): SDFAK

DFAKN [15] = target: T21, DFAKN; assay: SPOT length analysis, dot 73, HRP-S-protein detection
T21 sequence (peptide): DFAKN

FAKNF = target: T22, FAKNF; assay: SPOT length analysis, dot 74, HRP-S-protein detection
T22 sequence (peptide): FAKNF

AKNFV = target: T23, AKNFV; assay: SPOT length analysis, dot 75, HRP-S-protein detection
T23 sequence (peptide): AKNFV

RSSD = target: T24, RSSD; assay: SPOT length analysis, dot 82, HRP-S-protein detection
T24 sequence (peptide): RSSD

[16] = target: T2, …; assay: SPOT length analysis, dot 9, anti-histidine detection
[17] = target: T25, …; assay: SPOT length analysis, dot 13, anti-histidine detection
T25 sequence (peptide): FRSSDFAKNFVQ

[18] = target: T26, …; assay: SPOT length analysis, dot 15, anti-histidine detection
T26 sequence (peptide): SSDFAKNFVQTD

[19] = target: T27, …; assay: SPOT length analysis, dot 16, anti-histidine detection
T27 sequence (peptide): RIFRSSDFAKN

[20] = target: T28, …; assay: SPOT length analysis, dot 18, anti-histidine detection
T28 sequence (peptide): FRSSDFAKNFV

[21] = target: T6, …; assay: SPOT length analysis, dot 22, anti-histidine detection
[22] = target: T29, …; assay: SPOT length analysis, dot 24, anti-histidine detection
T29 sequence (peptide): FRSSDFAKNF

[23] = target: T30, …; assay: SPOT length analysis, dot 26, anti-histidine detection
T30 sequence (peptide): SSDFAKNFVQ

[24] = target: T8, …; assay: SPOT length analysis, dot 27, anti-histidine detection
[25] = target: T31, …; assay: SPOT length analysis, dot 28, anti-histidine detection
T31 sequence (peptide): DFAKNFVQTD

IFRSSDFA = target: T32, IFRSSDFA; assay: SPOT length analysis, dot 38, anti-histidine detection
T32 sequence (peptide): IFRSSDFA

IFRSSDF = target: T33, IFRSSDF; assay: SPOT length analysis, dot 47, anti-histidine detection
T33 sequence (peptide): IFRSSDF

FRSSDFA [26] = target: T11, FRSSDFA; assay: SPOT length analysis, dot 48, anti-histidine detection
SDFAKNF = target: T34, SDFAKNF; assay: SPOT length analysis, dot 51, anti-histidine detection
T34 sequence (peptide): SDFAKNF

AKNFVQT [27] = target: T13, AKNFVQT; assay: SPOT length analysis, dot 54, anti-histidine detection
FRSSDF = target: T35, FRSSDF; assay: SPOT length analysis, dot 58, anti-histidine detection
T35 sequence (peptide): FRSSDF

SSDFAK = target: T36, SSDFAK; assay: SPOT length analysis, dot 60, anti-histidine detection
T36 sequence (peptide): SSDFAK

IFRSS [28] = target: T17, IFRSS; assay: SPOT length analysis, dot 68, anti-histidine detection
RSSDF [29] = target: T19, RSSDF; assay: SPOT length analysis, dot 70, anti-histidine detection
DFAKN [30] = target: T21, DFAKN; assay: SPOT length analysis, dot 73, anti-histidine detection
FAKNFV = target: T37, FAKNFV; assay: SPOT length analysis, dot 63, HRP-S-protein detection
T37 sequence (peptide): FAKNFV

[31] = target: T38, sortilin 4-mer peptide RIFR (length analysis); assay: SPOT length analysis, dot 79, anti-histidine detection
T38 sequence (peptide, C-terminus anchored to the cellulose membrane through a beta-alanine linker): RIFR

[32] = target: T39, sortilin peptide … (synthetic, soluble); assay: SPOT length analysis, dot 11 (peptide here cellulose-bound), HRP-S-protein detection
T39 sequence (peptide): RIFRSSDFAKNF

[33] = target: T39, sortilin peptide … (synthetic, soluble); assay: SPOT length analysis, dot 11 (peptide here cellulose-bound), anti-histidine detection

B1: recombinant his-S-tagged pro-domain of human BDNF (residues Ala1-Arg110), from pET-30 Xa/LIC, E. coli (protein, not shown: small tags and cut ends)
chain: APMKEANIRGQGGLAYPGVRTHGTLESVNGPKAGSGLTSLADTFEHVIEELLDEDQKVRPNEENNKDADLYTSRVMLSSQVPLEPPLLFLLEEYKNYLDAANMSMRVRR
[1]
  BLU Sprotein: 38100 BLU
[2]
  BLU Sprotein: 223000 BLU
[3]
  BLU Sprotein: 20700 BLU
[4]
  BLU Sprotein: 199000 BLU
[5]
  BLU Sprotein: 24600 BLU
[6]
  BLU Sprotein: 60500 BLU
[7]
  BLU Sprotein: 29800 BLU
[8]
  BLU Sprotein: 19100 BLU
[9]
  BLU Sprotein: 18800 BLU
[10]
  BLU Sprotein: 114000 BLU
FRSSDFA [11]
  BLU Sprotein: 17200 BLU
SSDFAKN
  BLU Sprotein: 15900 BLU
AKNFVQT [12]
  BLU Sprotein: 16700 BLU
SDFAKN
  BLU Sprotein: 15600 BLU
NFVQTD
  BLU Sprotein: 14500 BLU
RIFRS
  BLU Sprotein: 137000 BLU
IFRSS [13]
  BLU Sprotein: 38500 BLU
FRSSD
  BLU Sprotein: 15000 BLU
RSSDF [14]
  BLU Sprotein: 15500 BLU
SDFAK
  BLU Sprotein: 14800 BLU
DFAKN [15]
  BLU Sprotein: 15600 BLU
FAKNF
  BLU Sprotein: 17500 BLU
AKNFV
  BLU Sprotein: 15900 BLU
RSSD
  BLU Sprotein: 14900 BLU
[16]
  BLU His: 19700 BLU
[17]
  BLU His: 25800 BLU
[18]
  BLU His: 19200 BLU
[19]
  BLU His: 53000 BLU
[20]
  BLU His: 19400 BLU
[21]
  BLU His: 45500 BLU
[22]
  BLU His: 20100 BLU
[23]
  BLU His: 17800 BLU
[24]
  BLU His: 17500 BLU
[25]
  BLU His: 17400 BLU
IFRSSDFA
  BLU His: 21400 BLU
IFRSSDF
  BLU His: 24400 BLU
FRSSDFA [26]
  BLU His: 16600 BLU
SDFAKNF
  BLU His: 17200 BLU
AKNFVQT [27]
  BLU His: 17300 BLU
FRSSDF
  BLU His: 17500 BLU
SSDFAK
  BLU His: 16100 BLU
IFRSS [28]
  BLU His: 25300 BLU
RSSDF [29]
  BLU His: 16100 BLU
DFAKN [30]
  BLU His: 17800 BLU
FAKNFV
  BLU Sprotein: 29600 BLU
[31]
  BLU His: 127000 BLU
[32]
  BLU Sprotein: 166000 BLU
[33]
  BLU His: 100000 BLU
